How the values were obtained:
[1] = molecular target: F-DicerΔ3 mutant lacking the DUF283 domain (human); assay: co-IP
[2] = molecular target: F-DicerΔN1 lacking a part of the DEAD-box RNA helicase domain (human); assay: co-IP
[3] = molecular target: T1, full-length FLAG-tagged Dicer (F-Dicer), baculovirus/Sf9 (human, UniProt Q9UPY3 1-1922); assay: SEC
[4] = molecular target: T1, full-length FLAG-tagged Dicer …; assay: pull-down + co-IP

T1 sequence (Q9UPY3 whole entry): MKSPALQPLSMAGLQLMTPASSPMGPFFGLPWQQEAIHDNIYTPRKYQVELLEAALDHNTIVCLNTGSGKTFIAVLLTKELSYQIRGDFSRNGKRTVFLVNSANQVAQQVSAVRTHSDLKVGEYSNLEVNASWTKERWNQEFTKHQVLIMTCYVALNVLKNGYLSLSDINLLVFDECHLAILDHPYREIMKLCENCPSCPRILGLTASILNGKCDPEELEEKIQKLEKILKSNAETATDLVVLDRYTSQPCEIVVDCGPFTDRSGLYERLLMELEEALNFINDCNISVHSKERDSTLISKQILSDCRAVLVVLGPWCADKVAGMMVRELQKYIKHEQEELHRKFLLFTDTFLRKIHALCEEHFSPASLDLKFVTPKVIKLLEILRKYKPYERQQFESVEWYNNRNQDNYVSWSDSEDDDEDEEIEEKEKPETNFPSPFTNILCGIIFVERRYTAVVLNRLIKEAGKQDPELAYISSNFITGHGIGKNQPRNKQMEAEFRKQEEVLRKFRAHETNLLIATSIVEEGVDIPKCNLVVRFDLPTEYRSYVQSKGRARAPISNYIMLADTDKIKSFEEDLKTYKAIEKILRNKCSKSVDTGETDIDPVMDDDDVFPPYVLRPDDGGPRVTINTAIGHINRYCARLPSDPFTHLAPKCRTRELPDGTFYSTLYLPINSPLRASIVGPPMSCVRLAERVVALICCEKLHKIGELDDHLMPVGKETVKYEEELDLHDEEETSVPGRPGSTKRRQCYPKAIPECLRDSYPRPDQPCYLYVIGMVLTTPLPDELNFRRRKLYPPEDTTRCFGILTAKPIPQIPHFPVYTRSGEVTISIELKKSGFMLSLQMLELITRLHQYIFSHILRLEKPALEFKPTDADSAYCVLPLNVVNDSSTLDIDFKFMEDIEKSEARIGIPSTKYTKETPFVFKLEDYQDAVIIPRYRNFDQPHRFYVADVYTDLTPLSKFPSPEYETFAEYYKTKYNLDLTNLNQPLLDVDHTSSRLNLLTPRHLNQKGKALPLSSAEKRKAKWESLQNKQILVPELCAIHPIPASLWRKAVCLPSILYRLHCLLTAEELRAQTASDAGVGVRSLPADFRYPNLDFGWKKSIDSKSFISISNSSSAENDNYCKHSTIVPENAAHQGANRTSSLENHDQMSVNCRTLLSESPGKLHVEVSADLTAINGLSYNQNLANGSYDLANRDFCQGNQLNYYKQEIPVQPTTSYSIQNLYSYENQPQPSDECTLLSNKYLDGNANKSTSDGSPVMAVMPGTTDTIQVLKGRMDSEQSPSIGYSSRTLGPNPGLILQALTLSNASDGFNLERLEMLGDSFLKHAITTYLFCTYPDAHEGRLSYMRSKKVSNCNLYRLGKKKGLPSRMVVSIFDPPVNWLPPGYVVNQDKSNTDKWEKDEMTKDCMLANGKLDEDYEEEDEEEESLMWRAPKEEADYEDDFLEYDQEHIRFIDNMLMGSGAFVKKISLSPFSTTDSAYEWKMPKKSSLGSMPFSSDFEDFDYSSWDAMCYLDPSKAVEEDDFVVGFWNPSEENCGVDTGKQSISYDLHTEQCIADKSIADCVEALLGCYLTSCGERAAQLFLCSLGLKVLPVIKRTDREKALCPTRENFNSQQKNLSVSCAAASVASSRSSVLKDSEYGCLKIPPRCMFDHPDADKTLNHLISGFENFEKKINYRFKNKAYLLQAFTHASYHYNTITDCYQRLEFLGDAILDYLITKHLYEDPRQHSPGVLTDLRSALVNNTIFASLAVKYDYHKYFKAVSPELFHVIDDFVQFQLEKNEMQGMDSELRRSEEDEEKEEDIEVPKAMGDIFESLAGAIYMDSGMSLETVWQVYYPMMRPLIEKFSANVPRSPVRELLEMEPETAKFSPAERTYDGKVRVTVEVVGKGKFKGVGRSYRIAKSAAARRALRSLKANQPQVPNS
F-DicerΔN1 lacking a part of the DEAD-box RNA helicase domain (human), sequence (Q9UPY3 whole entry, stated change not applied, the tested form may be a part): as the sequence (Q9UPY3 whole entry) above
F-DicerΔ3 mutant lacking the DUF283 domain (human), sequence (Q9UPY3 whole entry, stated change not applied, the tested form may be a part): as the sequence (Q9UPY3 whole entry) above

B1: full-length HAT (histidine affinity tag)-tagged ADAR1p110 (H-ADAR1p110), baculovirus/Sf9 (natural protein, human, UniProt P55265-5 1-931, looked up)
chain: MAEIKEKICDYLFNVSDSSALNLAKNIGLTKARDINAVLIDMERQGDVYRQGTTPPIWHLTDKKRERMQIKRNTNSVPETAPAAIPETKRNAEFLTCNIPTSNASNNMVTTEKVENGQEPVIKLENRQEARPEPARLKPPVHYNGPSKAGYVDFENGQWATDDIPDDLNSIRAAPGEFRAIMEMPSFYSHGLPRCSPYKKLTECQLKNPISGLLEYAQFASQTCEFNMIEQSGPPHEPRFKFQVVINGREFPPAEAGSKKVAKQDAAMKAMTILLEEAKAKDSGKSEESSHYSTEKESEKTAESQTPTPSATSFFSGKSPVTTLLECMHKLGNSCEFRLLSKEGPAHEPKFQYCVAVGAQTFPSVSAPSKKVAKQMAAEEAMKALHGEATNSMASDNQPEGMISESLDNLESMMPNKVRKIGELVRYLNTNPVGGLLEYARSHGFAAEFKLVDQSGPPHEPKFVYQAKVGGRWFPAVCAHSKKQGKQEAADAALRVLIGENEKAERMGFTEVTPVTGASLRRTMLLLSRSPEAQPKTLPLTGSTFHDQIAMLSHRCFNTLTNSFQPSLLGRKILAAIIMKKDSEDMGVVVSLGTGNRCVKGDSLSLKGETVNDCHAEIISRRGFIRFLYSELMKYNSQTAKDSIFEPAKGGEKLQIKKTVSFHLYISTAPCGDGALFDKSCSDRAMESTESRHYPVFENPKQGKLRTKVENGEGTIPVESSDIVPTWDGIRLGERLRTMSCSDKILRWNVLGLQGALLTHFLQPIYLKSVTLGYLFSQGHLTRAICCRVTRDGSAFEDGLRHPFIVNHPKVGRVSIYDSKRQSGKTKETSVNWCLADGYDLEILDGTRGTVDGPRNELSRVSKKNIFLLFKKLCSFRYRRDLLRLSYGEAKKAARDYETAKNYFKKGLKDMGYGNWISKPQEEKNFYLCPV
- fold reduction of interaction against full-length F-Dicer [1]: < 4 fold
- fold reduction of interaction against full-length F-Dicer [2]: < 4 fold
- stoichiometry N [3]: 1 ADAR1 per Dicer
- stoichiometry N [4]: ~1 ADAR1 per Dicer

From article PMC3651894 (Cell, 2013)
